Measurements published in patent US20170252458A1 (EISAI R AND D MANAGEMENT, published 2017).
Several values for one entry are separate records, joined by “and”; a condition that tells them apart may be missing. Identical values can stand only once.

B1: MORAb-003 (antibody, human IgG1, kappa, V domains shown)
VH: EVQLVESGGGVVQPGRSLRLSCSASGFTFSGYGLSWVRQAPGKGLEWVAMISSGGSYTYYADSVKGRFAISRDNAKNTLFLQMDSLRPEDTGVYFCARHGDDPAWFAYWGQGTPVTVSS
VL: DIQLTQSPSSLSASVGDRVTITCSVSSSISSNNLHWYQQKPGKAPKPWIYGTSNLASGVPSRFSGSGSGTDYTFTISSLQPEDIATYYCQQWSSYPYMYTFGQGTKVEIKR
notes: Humanized anti-human folate receptor alpha, unconjugated; also called farletuzumab
B2: MORAb003-ER1159569 (Lot NB3142-62A) (antibody, human IgG1, kappa, V domains shown)
VH: B1 VH
VL: B1 VL
modifications: Mal-PEG2-Val-Cit-pAB-eribulin on interchain cysteines, sites not given
notes: Antibody-drug conjugate; also called MORAb-003-VCP-eribulin
B3: 111B10-zu (antibody, human IgG1, kappa, V domains shown)
VH: EVQLVESGGGLVQPGGSLRLSCAASGFSLNNYAMSWVRQAPGKGLEWIGSISTGGLAFYANWAKGRFTISRDNSKNTLYLQMNSLRAEDTAVYYCARNGGGSYIFYYFDLWGQGTLVTVSS
VL: DIQMTQSPSSLSASVGDRVTITCQASQSISSYLSWYQQKPGKAPKLLIYSASTLASGVPSRFSGSGSGTDFTLTISSLQCEDAATYYCQSYYDIGTSTFGGGTKVEIKR
notes: Humanized anti-human mesothelin with unpaired cysteine at LCcys80; parental mAb in Biacore; also called 111810 zu
B4: 201C15-xi (antibody, human IgG1, kappa, V domains shown)
VH: QSVKESGGRLVTPGTPLTLTCTVSGIDLSSYAMGWFRQAPGKGLEYIGTINIGGRVYYASWAKGRFTISRTSTTVDLKAPSLTAEDTATYFCARYYNGGSYDIWGPGTLVTVSL
VL: DVVMTQTPASASEPVGGTVTIKCQASESIYRVLAWYQQKPGQPPKLLIYDTSTLASGAPSRFKGSGYGTEFTLTISGVQCEDAATYYCQGGYYADSYGIAFGGGTEVVVKR
notes: Rabbit-human chimeric anti-human mesothelin with unpaired cysteine at LCcys80; parental mAb in Biacore
B5: 201C15-zu (antibody, human IgG1, kappa, V domains shown)
VH: QVQLVESGGGLVQPGGSLRLSCSASGIDLSSYAMGWVRQAPGKGLEYIGTINIGGRVYYASWAKGRFTISRDNSKNTLYLQMNSLRAEDTAVYYCARYYNGGSYDIWGQGTLVTVSS
VL: DIQMTQSPSTLSASVGDRVTITCQASESIYRVLAWYQQKPGKAPKLLIYDTSTLASGVPSRFSGSGSGTEFTLTISSLQCDDAATYYCQGGYYADSYGIAFGGGTKVEIKR
notes: Humanized anti-human mesothelin with unpaired cysteine at LCcys80; parental mAb in Biacore
B6: 346C6-xi (antibody, human IgG1, kappa, V domains shown)
VH: QSVEESGGRLVKPDESLTLTCTASGFSLSSYAMIWVRQAPGEGLEWIGTISTGGITYYASWAKGRFTISKTSTTVDLKITSPTTEDTATYFCARGGYAASSAYYLPYYFDLWGQGTLVTVSS
VL: AAVLTQTPSPVSAAVGGTVTISCQSSQSVYNNNNLAWFQQKPGQPPKLLIYLASTLASGVPSRFSGSGSGTQFTLTISGVQCDDAATYYCLGGCDDDADTFAFGGGTEVVVKR
notes: as for B4
B7: 346C6-zu (antibody, human IgG1, kappa, V domains shown)
VH: EVQLVESGGGLVQPGGSLRLSCAASGFSLSSYAMIWVRQAPGKGLEWIGTISTGGITYYASWAKGRFTISRDNSKNTLYLQMNSLRAEDTAVYYCARGGYAASSAYYLPYYFDLWGQGTLVTVSS
VL: DIQMTQSPSSLSASVGDRVTITCQSSQSVYNNNNLAWYQQKPGKVPKLLIYLASTLASGVPSRFSGSGSGTDFTLTISSLQCEDAATYYCLGGCDDDADTFAFGGGTKVEIKR
notes: as for B5
B8: MORAb003-ER1242287 (antibody, human IgG1, kappa, V domains shown)
VH: B1 VH
VL: B1 VL
modifications: Mal-PEG8-Val-Cit-pAB-eribulin on interchain cysteines, sites not given
notes: Antibody-drug conjugate
B9: MORAb003-ER1235638 (antibody, human IgG1, kappa, V domains shown)
VH: B1 VH
VL: B1 VL
modifications: Mal-(CH2)5-Val-Cit-pAB-eribulin on interchain cysteines, sites not given
notes: Antibody-drug conjugate
B10: MORAb003-ER1231679 (antibody, human IgG1, kappa, V domains shown)
VH: B1 VH
VL: B1 VL
modifications: Mal-PEG2-Ala-Ala-Asn-pAB-eribulin on interchain cysteines, sites not given
notes: Antibody-drug conjugate
B11: MORAb003-ER1231690 (antibody, human IgG1, kappa, V domains shown)
VH: B1 VH
VL: B1 VL
modifications: Mal-PEG2-(Ala-Ala-Asn-pAB)2-eribulin on interchain cysteines, sites not given
notes: Antibody-drug conjugate
B12: MORAb003-ER1237504 (antibody, human IgG1, kappa, V domains shown)
VH: B1 VH
VL: B1 VL
modifications: Mal-PEG4-triazole-PEG3-disulfide-pAB-eribulin on interchain cysteines, sites not given
notes: Antibody-drug conjugate
B13: MORAb003-ER1237505 (antibody, human IgG1, kappa, V domains shown)
VH: B1 VH
VL: B1 VL
modifications: Mal-PEG4-triazole-PEG3-sulfonamide-pAB-eribulin on interchain cysteines, sites not given
notes: Antibody-drug conjugate
B14: MORAb003-PEG2-eribulin (antibody, human IgG1, kappa, V domains shown)
VH: B1 VH
VL: B1 VL
modifications: Mal-PEG2-eribulin (non-cleavable) on interchain cysteines, sites not given
notes: Antibody-drug conjugate
B15: MORAb003-PEG4-eribulin (antibody, human IgG1, kappa, V domains shown)
VH: B1 VH
VL: B1 VL
modifications: Mal-PEG4-eribulin (non-cleavable) on interchain cysteines, sites not given
notes: Antibody-drug conjugate
B16: MORAb003-ER1236940 (antibody, human IgG1, kappa, V domains shown)
VH: B1 VH
VL: B1 VL
modifications: NHS-PEG2-Val-Cit-pAB-eribulin on lysines, sites not given
notes: Antibody-drug conjugate; DAR 0.72 (LC-MS)
B17: MORAb003-ER1242288 (antibody, human IgG1, kappa, V domains shown)
VH: B1 VH
VL: B1 VL
modifications: NHS-PEG9-Val-Cit-pAB-eribulin on lysines, sites not given
notes: Antibody-drug conjugate preparation; DAR 0.00 (LC-MS)
B18: MORAb003-ER1159569 (Lot NB3073-88L) (antibody, human IgG1, kappa, V domains shown)
VH: B1 VH
VL: B1 VL
modifications: Mal-PEG2-Val-Cit-pAB-eribulin on interchain cysteines, sites not given
notes: as for B2
B19: MORAb003-ER1236941 (antibody, human IgG1, kappa, V domains shown)
VH: B1 VH
VL: B1 VL
modifications: NHS-(CH2)5-Val-Cit-pAB-eribulin on lysines, sites not given
notes: Antibody-drug conjugate; DAR 0.77 (LC-MS)
B20: MORAb003-ER1243700 (antibody, human IgG1, kappa, V domains shown)
VH: B1 VH
VL: B1 VL
modifications: NHS-PEG3-triazole-PEG3-Val-Cit-pAB-eribulin on lysines, sites not given
notes: as for B17
B21: MORAb003-ER1231691 (antibody, human IgG1, kappa, V domains shown)
VH: B1 VH
VL: B1 VL
modifications: NHS-PEG2-Ala-Ala-Asn-pAB-eribulin on lysines, sites not given
notes: Antibody-drug conjugate; DAR 0.37 (LC-MS)
B22: MORAb003-ER1244129 (antibody, human IgG1, kappa, V domains shown)
VH: B1 VH
VL: B1 VL
modifications: NHS-PEG3-triazole-PEG3-disulfide-pAB-eribulin on lysines, sites not given
notes: Antibody-drug conjugate; DAR 0.24 (LC-MS)
B23: MORAb003-ER1244623 (antibody, human IgG1, kappa, V domains shown)
VH: B1 VH
VL: B1 VL
modifications: NHS-PEG3-triazole-PEG3-sulfonamide-pAB-eribulin on lysines, sites not given
notes: Antibody-drug conjugate; DAR 0.55 (LC-MS)
B24: MORAb003-DBCO-ER1237508 (antibody, human IgG1, kappa, V domains shown)
VH: B1 VH
VL: B1 VL
modifications: NHS-PEG4-DBCO on lysines, then azide-PEG3-disulfide-pAB-eribulin by SPAAC; sites not given
notes: Antibody-drug conjugate
B25: MORAb003-DBCO-ER1138856 (antibody, human IgG1, kappa, V domains shown)
VH: B1 VH
VL: B1 VL
modifications: NHS-PEG4-DBCO on lysines, then azide-PEG3-sulfonamide-pAB-eribulin by SPAAC; sites not given
notes: Antibody-drug conjugate
B26: MORAb003-DBCO-PEG4 VCP eribulin (antibody, human IgG1, kappa, V domains shown)
VH: B1 VH
VL: B1 VL
modifications: NHS-PEG4-DBCO on lysines, then azido-PEG4-Val-Cit-pAB-eribulin by SPAAC; sites not given
notes: Antibody-drug conjugate
B27: MORAb003-DBCO-PEG2 eribulin (antibody, human IgG1, kappa, V domains shown)
VH: B1 VH
VL: B1 VL
modifications: NHS-PEG4-DBCO on lysines, then azido-PEG2-eribulin by SPAAC; sites not given
notes: Antibody-drug conjugate
B28: MORAb003-DBCO-PEG4 eribulin (antibody, human IgG1, kappa, V domains shown)
VH: B1 VH
VL: B1 VL
modifications: NHS-PEG4-DBCO on lysines, then azido-PEG4-eribulin by SPAAC; sites not given
notes: Antibody-drug conjugate
B29: 33011-zu (antibody, human IgG1, kappa, V domains shown)
VH: EVQLVESGGGLVQPGGSLRLSCAASGISLSSDAISWVRQAPGKGLEYIGIINGGGNTYYASWAKGRFTISRHNSKNTLYLQMNSLRAEDTAVYYCARGIQHGGGNSDYYYYGMDLWGQGTLVTVSS
VL: DIQMTQSPSSLSASVGDRVTITCQASQSISSVLSWYQQKPGKAPKLLIYLASTLASGVPSRFSGSGSGTDFTLTISSLQCEDIATYYCQTNYGTSSSNYGFAFGGGTKVEIKR
notes: Humanized anti-human mesothelin with unpaired cysteine at LCcys80; parental (unconjugated) mAb in Biacore; also called 33O11 zu

Columns and labels:
[1] = molecular target: T1, Recombinant human folate receptor alpha (human, UniProt P15328 25-234); experiment: ELISA, recombinant human FRA coated
T1 construct: also called FRA; FR
T1 sequence (P15328 25-234 limits assumed): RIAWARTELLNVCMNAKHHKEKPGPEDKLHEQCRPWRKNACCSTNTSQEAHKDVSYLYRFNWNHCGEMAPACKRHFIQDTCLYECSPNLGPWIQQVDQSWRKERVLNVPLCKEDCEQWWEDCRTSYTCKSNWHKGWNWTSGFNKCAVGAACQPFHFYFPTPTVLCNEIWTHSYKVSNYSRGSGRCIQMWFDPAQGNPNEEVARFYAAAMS
Procedure: Coating solution was discarded and the plates were washed three times using 1× PBS with 0.05% Tween-20 (PBST) buffer. Plates were blocked in 300 μL blocking buffer (1% BSA in PBST) at room temperature for 2 hours on an orbital shaker. […] Blocking buffer was discarded and 100 μL/well of diluted antibody was added to the plates. Plates were incubated at room temperature for 2 hours on an orbital shaker. Antibody solution was discarded and plates were washed three times using PBST. 100 μL/well of goat-anti-human IgG (H+L)-HRP (1:10,000 dilution in blocking buffer) solution was added to the plates, and plates were incubated at room temperature for 1 hour on an orbital shaker. Secondary antibody solution was discarded and plates were washed three times using PBST. 100 μL/well of QuantaBlu fluorogenic peroxidase substrate working solution (Thermo, Cat No. 15169) was added to the plates, and plates were incubated at room temperature for 30 min. Fluorescence was read at excitation 325 nm/emission 420 nm using a SpectraMax M5 (Molecular Devices). Data was analyzed using SoftMaxPro 5.4.2 software with 4-parameter fitting.

[2] = molecular target: T2, Recombinant human mesothelin (human, UniProt Q13421 296-580, limits assumed); experiment: Biacore T100, antibody captured on anti-human IgG, antigen injected, 1:1 Langmuir
T2 construct: also called MSLN
T2 sequence (Q13421 other isoform, or with tags, fused parts or gaps limits assumed): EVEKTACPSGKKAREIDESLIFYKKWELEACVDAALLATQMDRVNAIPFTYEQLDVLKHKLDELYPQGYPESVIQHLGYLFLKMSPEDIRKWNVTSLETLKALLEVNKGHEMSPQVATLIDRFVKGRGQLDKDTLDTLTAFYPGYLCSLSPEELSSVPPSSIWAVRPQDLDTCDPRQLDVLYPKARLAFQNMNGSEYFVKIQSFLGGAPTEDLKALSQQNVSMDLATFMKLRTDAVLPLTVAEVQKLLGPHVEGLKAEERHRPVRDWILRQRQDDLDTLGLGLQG
Procedure: Antibody concentrations were adjusted to 2 μg/mL in HBS-P+ buffer (GE Healthcare). Unmodified antibodies, or ADCs, were injected over an anti-human IgG sensor on a BIAcore T100 (GE Healthcare) for 1 min at a flow rate of 10 μL/min. To record the antigen association to the captured antibody, a series of increasing concentrations of antigen was injected for 300 sec at a flow rate of 30 μL/min. […] The dissociation of antigen was monitored for 30 min at the same flow rate. The sensor surface was regenerated by injecting 3 M MgCl₂ for 2×30 sec at a flow rate of 30 μL/min. Sensograms were analyzed with Biacore T100 Evaluation Software using a 1:1 Langmuir binding model.
Binding affinities of the parental antibodies were determined by Biacore analysis, as described above in section 1.6.1. Aggregation levels for all anti-human mesothelin ADCs were determined by SEC-HPLC and the DAR was analyzed using HIC-HPLC. In vitro potency was evaluated using a Crystal Violet cell-based cytotoxicity assay in A3 (A431 stabily transfected with human mesothelin (MSLN), MSLN^hi), OVCAR3 (human ovarian, MSLN^hi), HEC-251 (human endometroid, MSLN^med), H226 (human lung squamous cell mesothelioma, MSLN^lo, and A431 parental (MSLN^neg) cells. The results of the DAR, aggregation, and cytotoxicity analyses are shown in Table 50.

Binder | EC50 [1] | Kd [2] [nM]
B1 | 0.00629 µg/mL and 0.04 nM | 
B2 | 0.12 nM and 0.0182 µg/mL | 
B3 |  | 8.5
B4 |  | 1.1
B5 |  | 4.2
B6 |  | 1.4
B7 |  | 6.9
B8 | 0.0215 µg/mL and 0.14 nM | 
B9 | 0.0153 µg/mL and 0.1 nM | 
B10 | 0.0183 µg/mL and 0.12 nM | 
B11 | 0.00892 µg/mL and 0.06 nM | 
B12 | 0.0298 µg/mL and 0.2 nM | 
B13 | 0.0183 µg/mL and 0.12 nM | 
B14 | 0.00696 µg/mL and 0.05 nM | 
B15 | 0.00931 µg/mL and 0.06 nM | 
B16 | 0.017 µg/mL and 0.11 nM | 
B17 | 0.0144 µg/mL and 0.1 nM | 
B18 | 0.0226 µg/mL and 0.15 nM | 
B19 | 0.013 µg/mL and 0.09 nM | 
B20 | 0.00622 µg/mL and 0.04 nM | 
B21 | 0.0115 µg/mL and 0.08 nM | 
B22 | 0.0143 µg/mL and 0.1 nM | 
B23 | 0.00454 µg/mL and 0.03 nM | 
B24 | 0.0241 µg/mL and 0.16 nM | 
B25 | 0.015 µg/mL and 0.1 nM | 
B26 | 0.016 µg/mL and 0.11 nM | 
B27 | 0.0191 µg/mL and 0.13 nM | 
B28 | 0.0133 µg/mL and 0.09 nM | 
B29 |  | 3.4
